Experimental data reported in article PMC11737055.

Target: TDP-43 (UniProt Q921F2)
Assay: anti-GFP co-IP, anti-RFP Western blot
Conditions: reference: GFP-FMRP wild type; sites S499

FMRP (from UniProt P35922) GFP-FMRP S499A
binding against the reference: weaker
